Assay results taken from patent publication US6905854B2, “Mutated penicillin expandase and process for preparing 7-ADCA using the same” (Synmax Biochemical Co., Ltd., priority 2002, dated 2005).

Assays:
Assay type in all cases: biochemical
[1] = Relative activity of purified combined mutants compared to wild type DAOCS; settings: 1 mM penicillin G; activity of wild-type DAOCS as 100%
Method: (§1) For penicillin G, 20 μl of cell extracts was added into a standard 200 μl assay reaction containing 50 mM Mops/pH 7.5, 4 mM ascorbate, 1 mM FeSO4, 4 mM α-ketoglutarate and 7 mM penicillin G, and incubated at 30° C. for 20 minutes. The reaction was stopped by addition of 200 μl of ethanol, followed by a centrifugation at 15,000×g for 5 minutes. The concentration of cephalosporin G in supernatant was analyzed by HPLC with 40 μl injection. The mobile phase was 25 mM potassium phosphate/pH 6.5 with 19% acetonitrile at a flow rate of 1 ml/min. The retention time for cephalosporin G was 8.5 minutes and 12.5 minutes for penicillin G with detection at 215 nm, and the product at 8.5 minutes in DAOCS reaction was confirmed by ESI-LC/MS (positive): [M+H]^+=333. […] The different combinations of the mutated amino acids mentioned above were also constructed by site-directed mutagenesis.
(§2) The standard penicillin G assay was followed for kinetic assay, but 20 μg of purified DAOCS was used and the concentration of α-ketoglutarate was reduced to 1 mM. Kinetic parameters were obtained from triplicate experiments by Hanes-Woolf Plot. For assays using penicillin N as a main substrate, a total volume of 240 μl reaction containing 50 mM Hepes/pH 7.5, 0.4 mM ascorbate, 0.1 mM FeSO4, 0.1 mM α-ketoglutarate, 0.1 mM penicillin N and 0.5 μg of purified DAOCS was incubated at 30° C. for 10 minutes, then the same volume of 10 mM EDTA/pH 7.5 was added, and the mixture was subjected to ultrafiltration with UF 0.5 device (NMWL 5000, Millipore). The filtrate was analyzed by HPLC using 25 mM potassium phosphate/pH 6.5 as a mobile phase. The retention time of DAOC and penicillin N was 12 minutes and 13.5 minutes, respectively The results of kinetic parameters are shown in Table 1, wherein the definition and calculation of the parameters are described in Lehninger et al. Principles of Biochemistry, 2nd Ed. Worth Publishers, New York (1993) which is incorporated herein for reference.
The relative activities of the mutants are determined according to Chin H. S. et al supra with the activity of wild-type DAOCS as 100% and shown in Table 2. The assay was performed with 1 mM penicillin G, and the other conditions were the same as standard assay.

[2] = Kinetic assay of purified DAOCS with penicillin N as main substrate; settings: for penicillin N, 0.5 μg purified DAOCS, 30° C., 10 minutes; for Km: triplicate, Hanes-Woolf Plot
Method: (§3) The cell extract (2 ml) of a candidate mutant was applied onto a HiTrap Q column (5 ml) pre-equilibrated with buffer B (50 mM Mops/pH 7.5, 1 mM DTT, 0.4 mM pefabloc SC, and 0.5 μg/ml leupeptin). Then, the column was washed with 20 ml of buffer B, followed by a further wash with 25 ml of buffer B containing 120 mM NaCl, and DAOCS was eluted off with 20 ml of buffer B containing 150 mM NaCl. The DAOCS containing fractions were pooled (10 ml), concentrated by UF 15 device (NMWL 5K; Millipore), and loaded onto a Hiload Superdex 75 (16/60) column pre-equilibrated with buffer B at a flow rate of 1 ml/min.
as §2

[3] = Kinetic assay of purified DAOCS with penicillin G (standard penicillin G assay, HPLC of cephalosporin G); settings: for penicillin G, 20 μg purified DAOCS, 1 mM α-ketoglutarate, 30° C.; for Km: triplicate, Hanes-Woolf Plot
Method: as §1, §3, §2

Molecule	Relative Activities [1] [%]	kcat [2] [S^−1]	Km [2] [µM]	kcat [3] [S^−1]	Km [3] [µM]
YS88: combined DAOCS mutant, mutated sites 79E, 275I, 281Y (protein, UniProt P18548 1-311, looked up, variant G79E V275I C281Y) Deacetoxycephalosporin C …: MDTTVPTFSLAELQQGLHQDEFRRCLRDKGLFYLTDCGLTDTELKSAKDLVIDFFEHGSEAEKRAVTSPVPTMRRGFTELESESTAQITNTGSYSDYSMCYSMGTADNLFPSGDFERIWTQYFDRQYTASRAVAREVLRATGTEPDGGVEAFLDCEPLLRFRYFPQVPEHRSAEEQPLRMAPHYDLSMVTLIQQTPCANGFVSLQAEVGGAFTDLPYRPDAVLVFCGAIATLVTGGQVKAPRHHVAAPRRDQIAGSSRTSSVFFLRPNADFTFSIPLAREYGFDVSLDGETATFQDWIGGNYVNIRRTSKA	430				
YH2: mutated penicillin expandase (DAOCS) with substitution H244R (protein, UniProt P18548 1-311, looked up, variant H244R) Deacetoxycephalosporin C …: MDTTVPTFSLAELQQGLHQDEFRRCLRDKGLFYLTDCGLTDTELKSAKDLVIDFFEHGSEAEKRAVTSPVPTMRRGFTGLESESTAQITNTGSYSDYSMCYSMGTADNLFPSGDFERIWTQYFDRQYTASRAVAREVLRATGTEPDGGVEAFLDCEPLLRFRYFPQVPEHRSAEEQPLRMAPHYDLSMVTLIQQTPCANGFVSLQAEVGGAFTDLPYRPDAVLVFCGAIATLVTGGQVKAPRHRVAAPRRDQIAGSSRTSSVFFLRPNADFTFSVPLARECGFDVSLDGETATFQDWIGGNYVNIRRTSKA		0.236 ± 0.005	8 ± 1	0.0672 ± 0.0008	2450 ± 40
SC39: combined DAOCS mutant, mutated sites 73T, 281Y (protein, UniProt P18548 1-311, looked up, variant M73T C281Y) Deacetoxycephalosporin C …: MDTTVPTFSLAELQQGLHQDEFRRCLRDKGLFYLTDCGLTDTELKSAKDLVIDFFEHGSEAEKRAVTSPVPTTRRGFTGLESESTAQITNTGSYSDYSMCYSMGTADNLFPSGDFERIWTQYFDRQYTASRAVAREVLRATGTEPDGGVEAFLDCEPLLRFRYFPQVPEHRSAEEQPLRMAPHYDLSMVTLIQQTPCANGFVSLQAEVGGAFTDLPYRPDAVLVFCGAIATLVTGGQVKAPRHHVAAPRRDQIAGSSRTSSVFFLRPNADFTFSVPLAREYGFDVSLDGETATFQDWIGGNYVNIRRTSKA	610				
YS81: combined DAOCS mutant, mutated sites 275I, 281Y, 305M (protein, UniProt P18548 1-311, looked up, variant V275I C281Y I305M) Deacetoxycephalosporin C …: MDTTVPTFSLAELQQGLHQDEFRRCLRDKGLFYLTDCGLTDTELKSAKDLVIDFFEHGSEAEKRAVTSPVPTMRRGFTGLESESTAQITNTGSYSDYSMCYSMGTADNLFPSGDFERIWTQYFDRQYTASRAVAREVLRATGTEPDGGVEAFLDCEPLLRFRYFPQVPEHRSAEEQPLRMAPHYDLSMVTLIQQTPCANGFVSLQAEVGGAFTDLPYRPDAVLVFCGAIATLVTGGQVKAPRHHVAAPRRDQIAGSSRTSSVFFLRPNADFTFSIPLAREYGFDVSLDGETATFQDWIGGNYVNMRRTSKA	1290				
YS69: mutated penicillin expandase (DAOCS) with substitution M188I (protein, UniProt P18548 1-311, looked up, variant M188I) Deacetoxycephalosporin C …: MDTTVPTFSLAELQQGLHQDEFRRCLRDKGLFYLTDCGLTDTELKSAKDLVIDFFEHGSEAEKRAVTSPVPTMRRGFTGLESESTAQITNTGSYSDYSMCYSMGTADNLFPSGDFERIWTQYFDRQYTASRAVAREVLRATGTEPDGGVEAFLDCEPLLRFRYFPQVPEHRSAEEQPLRMAPHYDLSIVTLIQQTPCANGFVSLQAEVGGAFTDLPYRPDAVLVFCGAIATLVTGGQVKAPRHHVAAPRRDQIAGSSRTSSVFFLRPNADFTFSVPLARECGFDVSLDGETATFQDWIGGNYVNIRRTSKA		0.277 ± 0.004	11 ± 1	0.0507 ± 0.0006	1960 ± 90
YS72: mutated penicillin expandase (DAOCS) with substitution C155Y (protein, UniProt P18548 1-311, looked up, variant C155Y) Deacetoxycephalosporin C …: MDTTVPTFSLAELQQGLHQDEFRRCLRDKGLFYLTDCGLTDTELKSAKDLVIDFFEHGSEAEKRAVTSPVPTMRRGFTGLESESTAQITNTGSYSDYSMCYSMGTADNLFPSGDFERIWTQYFDRQYTASRAVAREVLRATGTEPDGGVEAFLDYEPLLRFRYFPQVPEHRSAEEQPLRMAPHYDLSMVTLIQQTPCANGFVSLQAEVGGAFTDLPYRPDAVLVFCGAIATLVTGGQVKAPRHHVAAPRRDQIAGSSRTSSVFFLRPNADFTFSVPLARECGFDVSLDGETATFQDWIGGNYVNIRRTSKA		0.235 ± 0.008	16 ± 0.5	0.0476 ± 0.0012	1760 ± 50
YS100: combined DAOCS mutant, mutated sites 79E, 275I, 305L (protein, UniProt P18548 1-311, looked up, variant G79E V275I I305L) Deacetoxycephalosporin C …: MDTTVPTFSLAELQQGLHQDEFRRCLRDKGLFYLTDCGLTDTELKSAKDLVIDFFEHGSEAEKRAVTSPVPTMRRGFTELESESTAQITNTGSYSDYSMCYSMGTADNLFPSGDFERIWTQYFDRQYTASRAVAREVLRATGTEPDGGVEAFLDCEPLLRFRYFPQVPEHRSAEEQPLRMAPHYDLSMVTLIQQTPCANGFVSLQAEVGGAFTDLPYRPDAVLVFCGAIATLVTGGQVKAPRHHVAAPRRDQIAGSSRTSSVFFLRPNADFTFSIPLARECGFDVSLDGETATFQDWIGGNYVNLRRTSKA	470				
YS71: mutated penicillin expandase (DAOCS) with substitution A106T (protein, UniProt P18548 1-311, looked up, variant A106T) Deacetoxycephalosporin C …: MDTTVPTFSLAELQQGLHQDEFRRCLRDKGLFYLTDCGLTDTELKSAKDLVIDFFEHGSEAEKRAVTSPVPTMRRGFTGLESESTAQITNTGSYSDYSMCYSMGTTDNLFPSGDFERIWTQYFDRQYTASRAVAREVLRATGTEPDGGVEAFLDCEPLLRFRYFPQVPEHRSAEEQPLRMAPHYDLSMVTLIQQTPCANGFVSLQAEVGGAFTDLPYRPDAVLVFCGAIATLVTGGQVKAPRHHVAAPRRDQIAGSSRTSSVFFLRPNADFTFSVPLARECGFDVSLDGETATFQDWIGGNYVNIRRTSKA		0.277 ± 0.014	13 ± 2	0.0453 ± 0.0009	1770 ± 150
SC59: DNA-shuffled combined DAOCS mutant with C155Y, Y184H, V275I and C281Y (protein, UniProt P18548 1-311, looked up, variant C155Y Y184H V275I C281Y) Deacetoxycephalosporin C …: MDTTVPTFSLAELQQGLHQDEFRRCLRDKGLFYLTDCGLTDTELKSAKDLVIDFFEHGSEAEKRAVTSPVPTMRRGFTGLESESTAQITNTGSYSDYSMCYSMGTADNLFPSGDFERIWTQYFDRQYTASRAVAREVLRATGTEPDGGVEAFLDYEPLLRFRYFPQVPEHRSAEEQPLRMAPHHDLSMVTLIQQTPCANGFVSLQAEVGGAFTDLPYRPDAVLVFCGAIATLVTGGQVKAPRHHVAAPRRDQIAGSSRTSSVFFLRPNADFTFSIPLAREYGFDVSLDGETATFQDWIGGNYVNIRRTSKA		0.048 ± 0.001	92 ± 0.5	0.1398 ± 0.0015	190 ± 2
YS74: combined DAOCS mutant, mutated sites 275I, 304K, 305L (protein, UniProt P18548 1-311, looked up, variant V275I N304K I305L) Deacetoxycephalosporin C …: MDTTVPTFSLAELQQGLHQDEFRRCLRDKGLFYLTDCGLTDTELKSAKDLVIDFFEHGSEAEKRAVTSPVPTMRRGFTGLESESTAQITNTGSYSDYSMCYSMGTADNLFPSGDFERIWTQYFDRQYTASRAVAREVLRATGTEPDGGVEAFLDCEPLLRFRYFPQVPEHRSAEEQPLRMAPHYDLSMVTLIQQTPCANGFVSLQAEVGGAFTDLPYRPDAVLVFCGAIATLVTGGQVKAPRHHVAAPRRDQIAGSSRTSSVFFLRPNADFTFSIPLARECGFDVSLDGETATFQDWIGGNYVKLRRTSKA	300				
